Laboratory results published in the supplement of paper PMC12042874.
± gives the uncertainty stated by the source.

test: amyloid nucleation score (Sup35N fusion, yeast selection) (log enrichment); library NNK1; higher = more nucleation; inactive = no reads after selection
Summary of the method: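 The nucleation score equals the log enrichment of output over input reads from DiMSum, centred on the mode score of non-aggregating sequences. It was computed only for sequences with 100 or more input reads. The reads came from Illumina sequencing of plasmid inserts from psi-negative yeast expressing Sup35N fused to peptides of 20 random codons, induced with 100 μM copper sulfate for 24 hours and grown 7 days at 30°C without adenine and uracil.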

Substance | amyloid nucleation score
NHRNVMRQIDASVMGVYNTW | 0.766 ± 1.2
NHSNTCEWRSCRP | 0.551 ± 0.61
NIANSWYW | -0.537 ± 1.9
NIGNVMRSCSKVYSLSLKQL | 0.585 ± 0.31
NIHSEAPISPSMPGLREVTA | 0.219 ± 0.32
NIKDRILYNVYMRGMCIYCL | 6.137 ± 0.053
NISSNRCVNNVAPSDSSTYF | -0.091 ± 0.69
NIYVGSYTLYTTN | 5.386 ± 0.047
NKLCTR | inactive
NLECFTCFFLYTIDMNLKP | 4.94 ± 0.053
NLHFVGTCHTFSSAYNRRET | -0.95 ± 2.7
NLICDLGNSVTMSVRDDQTV | -0.013 ± 0.36
NLILDQVNTYSLCSTIFI | 7.291 ± 0.058
NLLYTY | 1 ± 0.53
NLRLAWRGQTVCRETHKRPF | 2.37 ± 0.13
NLRQVCNSAFVVGSVIFFWV | -0.318 ± 0.69
NLTGGCLGVRWDMVECAWYY | 3.77 ± 0.068
NLTRSVHVMRQVIVQHFIGN | 0.424 ± 0.72
NLTSVPYMPLECDYHARSYF | -1.55 ± 1.2
NMALCTCGLNPGNL | 0.003 ± 0.46
NMFMIV | -1.05 ± 1.3
NMIESIVDISTPFIHGMIND | 0.295 ± 1.1
NMSGMVLGLVLTATWSFMSV | 0.588 ± 0.45
NMTPFGYIHFTL | 0.644 ± 1
NMTSYSIYGELE | -0.341 ± 0.21

Substance | amyloid nucleation score
NNCSWIIGHRVVPTSRGE | -0.329 ± 0.45
NPDDVFMSAVWGYF | -0.127 ± 0.19
NPKSFNGCVFRLGGVPYFVS | 0.076 ± 0.36
NPLHTMFTLYEIRQWRLF | -0.048 ± 0.3
NPMLLPSEPSS | -0.181 ± 0.42
NPPGGDIYEC | -0.721 ± 0.53
NPPVWPSTFQE | -0.159 ± 0.58
NPRLCPKDMRGRPQEKRVPQ | -0.345 ± 1.7
NPVPGARKNRVHAGSKSDTG | 0.075 ± 0.68
NREVYKMLLGCFSIHISCNR | inactive
NRFTHHSIR | 1.19 ± 0.84
NRIFCLYSFCCFHENWVGLY | 4.96 ± 0.095
NRIMY | -0.09 ± 0.2
NRIRRWWTFRVLGDSQKCVD | 0.411 ± 1
NRNERVTHSSQFSIGFEERM | 1.14 ± 0.57
NRQKFSDVSYCTMTMFRVAH | -0.61 ± 1.7
NRRMFV | -1.13 ± 0.48
NRRSSKLIN | inactive
NRTWGYLSCALRNPSMTT | -0.305 ± 0.47
NRVLLSEAKSQFIG | 0.366 ± 0.59
NSCNDRFHLAMRQGF | 0.067 ± 0.84
NSDKLPRCHLSLSYV | 0.994 ± 0.28
NSELFIGGDYLDIDST | 0.591 ± 0.43
NSFKCFNDRNEVALMITHRE | -0.526 ± 0.77
NSFSDSHRWKPGRRNRCKRG | 1.07 ± 0.97

Substance | amyloid nucleation score
NSIFLLSYLKLIFAVYA | inactive
NSILVNVYDKTFRVGLRGRN | inactive
NSIPLDLSNTLLLCARC | -0.02 ± 0.49
NSNMGCSVI | -0.596 ± 1
NSRKSAGHPSLESGSLLCYA | -0.041 ± 0.5
NSRMRFILGTFY | 1.63 ± 0.41
NSSMVG | -1.16 ± 1.7
NSVAGSYGVWQWGDSRSLPP | 0.262 ± 0.43
NSYKNYCVLCECRC | 4.21 ± 0.07
NSYRFSLFQ | 1.32 ± 0.46
NSYTCNMFDLVFCAYTIASI | 4.95 ± 0.057
NSYVLVNCALLRLGRINVFY | 7.56 ± 0.077
NTLYVGWCMGFV | -0.354 ± 0.3
NTMPSGWNRYTVYG | -0.634 ± 0.44
NTQRTLIFSPMFVSRRLNLA | 2.64 ± 0.16
NTRAPFLKHLNYFAYTTFII | 0.123 ± 0.22
NTSVLLTVLVG | 0.822 ± 0.46
NTVCSAMRW | 4.14 ± 0.091
NTYGAGSLGITWQQVCLTYE | 0.767 ± 0.62
NTYVYNDKGVRNIWKKLVYT | inactive
NVDSRFD | -1.1 ± 0.81
NVGGFQSLPEYNSYRMRAEQ | 0.26 ± 0.56
NVLVQGFG | -0.017 ± 0.66
NVMVTFFGCIRKWRSNWSQE | -0.016 ± 0.48
NVPCRVLRFGHLSDIGIDCQ | 0.705 ± 0.9

Substance | amyloid nucleation score
NVPIPRAFRDNRTL | 0.577 ± 0.5
NVQGSHSCSISCYIMPGRAM | 5.56 ± 0.077
NVRALILIKNCSPQMLRNEF | 5.07 ± 0.06
NVRDLSMISLGAEVWGRIAV | 0.619 ± 0.81
NWCVLALIN | 1.83 ± 0.43
NWHVGIIGWRCMGHTQKYVN | 0.038 ± 0.22
NWIGS | 1.44 ± 0.41
NWNSR | 0.197 ± 0.64
NWRQEYVFAY | -1.37 ± 2.4
NWSFEWWTSIAMEQ | -0.222 ± 0.42
NWSHGLLTPNVCW | -0.573 ± 1.4
NWVAYIPKDNVWVVRGKLKG | 0.753 ± 0.53
NWVRLFQFILTRYSAFAHFR | -0.264 ± 0.34
NYALGFRAAWIIRLLRWSVE | 0.254 ± 0.57
NYEYRDYASDERLYGSGTML | 0.103 ± 0.37
NYFTRFVTGDGLSFLMRVAT | 0.487 ± 0.82
NYHFDWLRFFRHQREVGEVA | 0.4 ± 0.8
NYIGYLYLFDFCEHDLCRCF | 6.62 ± 0.074
NYQWIRIVIMYVLSMTASLS | inactive
NYRSGVLELWYGRSMPWS | 0.327 ± 0.42
NYTTSMNPLHFVACK | inactive
NYVEVINNFHAFVRVLFEIL | 4.09 ± 0.15
NYYDSRFGLHIVLELWVARL | 0.431 ± 0.2
NYYFAKSLLHI | 1.27 ± 0.79
NYYIRRTCMSTYYVRVLIKS | 0.522 ± 0.39

Substance | amyloid nucleation score
PAGTGINLMICVARGGRTSG | 5.24 ± 0.1
PAMLPLTAMFLLHGRYVLTP | -0.384 ± 0.8
PATELLYNVCGGY | 0.044 ± 0.38
PAVIILVIKMHGGIKGKDGR | -0.755 ± 0.44
PCCWLPRGDTLDYTQHR | -0.065 ± 0.98
PCKSCGLKFTRW | 0.235 ± 0.39
PCLLCVYCMFL | 4.53 ± 0.055
PCPSINWLMIINNR | 7.743 ± 0.051
PCQFMASSYFHK | inactive
PCTGLRHGLHEFMSRYPDRD | 0.215 ± 0.97
PDSARSECAGRVNLFVFRAR | 0.559 ± 0.32
PDSFCFTMHLRKDEMMTSCK | -0.053 ± 1
PEHRSGNKNMYLYRSRDDMN | 0.012 ± 0.7
PERNNEYHVMLTRHRCHQGC | -1.41 ± 2.4
PFCGTFVCGVGLWIRVNCNR | 0.728 ± 0.74
PFFWFH | -0.482 ± 0.26
PFIWDDLAETVLNK | 0.144 ± 0.27
PFMLRSNGQWTSYINCIFIS | 7.865 ± 0.068
PFNMVWMRKYHLRSR | -0.378 ± 0.34
PFRNKNQMRWDMKM | 0.209 ± 0.37
PFSGFLCSRVCAMVDKTLFS | inactive
PFTVTKFRSYEISVINLPNW | 1.34 ± 0.11
PFVARQHMNPFTVVGTNLCH | -0.376 ± 1.9
PFVDVTRHRNSPS | 1.01 ± 1
PFYLDSGADVTEPGHLGFYG | 0.158 ± 0.37

Substance | amyloid nucleation score
PFYSETDDSRYIDVRRVFCF | inactive
PGARSLLGSYYV | 0.058 ± 0.84
PGNGTGVSTDGWVTLMHRRR | -0.709 ± 0.53
PGPRVNHTRCVM | 1.52 ± 0.85
PGRYSISGSEHMPVYLYTFH | inactive
PGSWVTESLMTYRLCNLSNV | 0.455 ± 0.35
PGWYFDTGSAPLQVSRRSGL | 0.66 ± 0.63
PHFLGQFYSDVPCDCGLCWY | 0.193 ± 0.9
PHGHVEYLIFFCNKPGSHGS | 1.49 ± 0.3
PHQPRILM | -0.387 ± 0.36
PHSMYCGETWLSLDCQMQFM | -0.009 ± 0.74
PHYFFS | -0.593 ± 0.39
PIGLMGFRLSSICLSIRTLP | -0.469 ± 0.65
PIMWCWHAVMSLS | inactive
PISSGNCSTRLGSFSSWYSV | -0.485 ± 0.68
PITILVVFNLQKY | 6.242 ± 0.046
PKFCWAWSYALMGNKNLKSC | -0.715 ± 0.34
PKMGSGHSWTRGQYICHS | -0.301 ± 1.1
PLCPSGRNYVS | -0.159 ± 0.25
PLFNNSRRCWGFGSLEDYLL | 0.213 ± 0.53
PLLGASSRYDHAMLCGNRTF | 0.127 ± 0.33
PLLMGEEFRYSFSLCYNTSS | -0.548 ± 1.7
PLLVYIFNFHCYHLVNAMTV | 2.2 ± 0.32
PLLYLPNWLISCFYLLF | 0.263 ± 0.53
PLPVVA | 0.225 ± 0.5

Substance | amyloid nucleation score
PMVRMQYDPYIKTMCVVWMR | -0.195 ± 1.2
PNDSYNGL | -0.421 ± 0.46
PNYEVDCDMFYSSFVGGFRV | 0.173 ± 1.4
PPHIRKAGMRTFMGGLGLRG | 0.619 ± 0.67
PQGSVGLEFKNYCVRAACGF | 0.078 ± 0.93
PQKHSFAWHRMVATLALSYR | 1.17 ± 0.93
PQRRGHIRIDRILSSTWTVA | 0.197 ± 0.39
PRYMTLGVVWSMSGWSESVQ | 1.04 ± 0.52
PSFNLNFVRINLQDGNMRLS | 7.038 ± 0.048
PSGCFVWEML | inactive
PSLYACGQKPRSEALDARWL | inactive
PSYHGYLGLSNPVRYRMCV | 0.197 ± 0.28
PTETVMMRRIFGSRGPWYAV | 0.286 ± 1.4
PTRDCRVNKGSLMWTP | -0.213 ± 0.59
PTRPMTTELRRKVRRPALDG | -0.139 ± 0.62
PTSLLLGINYCLFWSIYLRD | 1.81 ± 0.16
PTSSGNATAWRNLNLLLCEL | 0.328 ± 0.97
PVARTPHWVLAVRWHALIWG | 1.4 ± 0.29
PVDFNQYVVSGLQDLLHYAG | inactive
PVGYYILGMNGRVMNWSQRQ | 1.73 ± 0.52
PVKGGVMGF | -0.35 ± 1.4
